Values quoted from earlier work in publication PMC6289173.

Biological target: endophilin (UniProt O35179)

Kd: 10 µM
Substance: endophilin (from UniProt O35179)
